According to paper PMC11609597, “Characterization of two bacterial tyrosinases from the halophilic bacterium Hahella sp. CCB MM4 relevant for phenolic compounds oxidation in wetlands” (FEBS Open Bio, 2024):

How the values were obtained:
cleaved-HcTyr1 = molecular target: T1, cleaved-HcTyr1 (Hahella sp. CCB-MM4, UniProt A0A261GRE4); test: MBTH o-quinone trapping, absorbance at […] nm, Michaelis-Menten fit; format: biochemical; details: 50 mM potassium phosphate pH 7.0, 25 °C, 5 mM MBTH, 2% N,N'-dimethylformamide, Cu(II) 2:1; LID self-cleaved form; diphenolase
T1 construct: gene BTA51_09820; TYR domain after self-cleavage of the C-terminal LID domain during storage (over 2 months, 4 °C); used without further purification; expressed in E. coli BL21(DE3) with C-terminal His tag; Cu(II) added 2:1

purified protein [1] = substrate: N[C@@H](Cc1ccc(O)c(O)c1)C(=O)O; test: purified protein; format: biochemical, Hahella sp. CCB-MM4; details: 5 mM MBTH, 2% N,N'-dimethylformamide
purified protein [2] = substrate: N[C@@H](Cc1ccc(O)cc1)C(=O)O; test: purified protein; format: biochemical, Hahella sp. CCB-MM4; details: 5 mM MBTH, 2% N,N'-dimethylformamide
[3] = 50 mM potassium phosphate pH 7.0, 25 °C, Cu(II) 2:1, latent form, diphenolase
[4] = 50 mM potassium phosphate pH 7.0, 25 °C, Cu(II) 2:1, latent form, monophenolase
[5] = 50 mM sodium citrate pH 5.5, 25 °C, Cu(II) 2:1, diphenolase
[6] = 50 mM sodium citrate pH 5.5, 25 °C, Cu(II) 2:1, monophenolase

**Q.** How did the Km (cleaved-HcTyr1) turn out when `N[C@@H](Cc1ccc(O)c(O)c1)C(=O)O` [L-DOPA] was run?
**A.** Its Km is 347 ± 7 µM.

B1: HcTyr1 (latent-HcTyr1) (Hahella sp. CCB-MM4) (protein)
chain: MKTRQNVYELKDDTLSWYSRAVEEMKSRDINDPTSWWYQGAIHGYATYPSALTYWHDATGYPPSQQTVNSGFWNRCQHGTWYFLPWHRMYLFYFEEIVAKAIRDMGGPADWTLPYWNYCEAYNTSASPSNQQQALQIPPEFGSSQGPNADFASLWIKNRRNYVLNKNNVNPWPAMNEAEFTNSGGDISFGGGVTGFAHSGGQTGQLESLPHNVVHTDINGAMGNPDTAALDPIFWLHHANIDRLWQVWLAQAGRSNPVVNAWKDFRFKFHDANGQPVEIAVKDVETTQLLGYVYTPAFPLSSTTPARRSVPAMDVVGATSASFSVGDHMAPLDLTMVPQPARGARLLAARGGDEKRTILRISNVKGKGATSPIDLFITNRDNEEGNEENFVGCIGLFGLENASTPSVESDGSGLNFAIDISDTINKLRQRDDWDEDNIRVQLIPQSKQDSDVEINVGRVSLHSEID
notes: full length 466 aa with LID domain (latent), C-terminal His tag (pET22b), E. coli BL21(DE3), about 52 kDa, monomer; Cu(II) added 2:1
**Q.** How did the Km (purified protein [1]; [3]) turn out when B1 was run?
**A.** Its Km is 370 ± 5 µM.

**Q.** And the kcat (purified protein [1]; [3])?
**A.** Its kcat is 1.00 ± 0.0 s⁻¹.

**Q.** And the Km (purified protein [2]; [4])?
**A.** The Km was 187 ± 35 µM.

**Q.** What about the kcat (purified protein [2]; [4]) of the same molecule?
**A.** The kcat was 0.71 ± 0.03 s⁻¹.

B2: HcTyr2 (Hahella sp. CCB-MM4) (protein)
chain: MGDSSELNVRRSVRDLQAEYDRGNRKPLEDLIRAWKGIQELPPDDKRSFFILGGYHGEPFDYRNAVDALPPDDIYTYWGGWCNHGNVLFPTWHRIYILKLEEALQSIVPGVTLPFWDETSEETVKKGIPDVLTREYFELDGENIKNPLYSYTLPLSLSDNVPGDNKAYEKPAGYETVRYPLSGLVGTPEARAATAKHNAKYPNPIENTQLLNKNIIAWLHGSGKDEEGPTTTDPNPKGRGVKWMYEKCLSAPNYTVFSNTTSAGQWNLDHPAKSVVALEQPHNDVHLAVGGFDIPGQGESGQVADANGDMGENNTAALDPIFFFHHCNVDRMFWLWQKQNGFINKLEVITGYYGTNSSDSQGPTPGIPPGTPLDLNTPLNPFIKDEFGNPFTSMDCINIEEQLGYTYGPGSLDEVPKPEPITGGSTKKLTVRGINRGLFDGSFVIRAYASVPDAQGQLTEYYLGDHAVLSRRNVVKCANCLTHLEVIAHFPLDTLSADLVDKAEYWITIQHRGHSKRMKVDKDTGQSEKALLAQRAELPEKLKYSISVTD
notes: full length 550 aa with LID domain attached, C-terminal His tag (pET22b), E. coli BL21(DE3), about 61 kDa; Cu(II) added 2:1
**Q.** With B2 as the molecule, how does the Km (purified protein [1]; [5]) read?
**A.** The Km was 196 ± 6 µM.

**Q.** What about the kcat (purified protein [1]; [5]) of the same molecule?
**A.** Its kcat is 9.94 ± 0.0 s⁻¹.

**Q.** What about the Km (purified protein [2]; [6]) of the same molecule?
**A.** The Km was 160 ± 5 µM.

**Q.** What about the kcat (purified protein [2]; [6]) of the same molecule?
**A.** Its kcat is 6.12 s⁻¹.
